What was measured:
Format in all cases: physicochemical
[1] = FT-NIR trehalose crystallization after frozen storage (freeze rate and storage temperature studies)
Description: To prepare the samples for slow and normal freezing, two milliliter sample aliquots were dispensed into autoclaved 5 cc glass vials and sealed with 20 mm Lyo-Stoppers using aseptic technique in a ventilated biosafety hood with laminar air flow. Slow freezing was accomplished by placing sample vials in a lyophilizer on pre-cooled shelves and held between −1° C. and −3° C. for 24 hours.
(§1) Normal freezing was accomplished by placing sample vials in a freezer at −20° C. until samples were completely frozen. To control for supercooling, ice was nucleated by applying frozen CO2 to the side of each vial until ice formation.
(§2) Fast freezing was accomplished by quench cooling fifty microliter sample aliquots drop-wise into liquid nitrogen. The freezing endpoint was determined by the increased opacity and the sinking of the sphere from the surface into a stainless steel mesh collection basket. After freezing, one-milliliter aliquots of bulk drug substance frozen pellets were removed from the liquid nitrogen and transferred into sterile, pre-chilled 5 cc glass vials. The vials were then stored on frozen CO2, and sealed with 20 mm Lyo-Stoppers. The formulation screen samples were fast frozen in 96-well microplates using liquid nitrogen. Immediately after the microplates were frozen, the samples were nucleated by scratching the ice surface with a 24 gauge needles (BD, Franklin Lakes, N.J.).
Samples frozen at the three freeze rates (slow, normal, and fast) by the methods described were transferred to three freezer units with set points of −20° C., −14° C., and −8° C. with a range of ±2° C. for frozen storage. The freezer temperature was monitored using a Yokogawa temperature monitoring system (Yokogawa Meters and Instruments Corporation, Tokyo, Japan). Sample vials were pulled after 0, 1, 2, 3, 6, 9 and 12 months of isothermal, frozen storage and placed on the lab counter bench under ambient conditions (approximately 22° C.) and allowed to thaw prior to analysis.
Samples intended for trehalose crystallization determination were first freeze-dried using a LyoStar II lyophilizer unit controlled by LyoManager II software (FTS Systems, Stone Ridge, N.Y.). The frozen samples were placed on a pre-cooled shelf and held at −35° C. for 7 hours prior to primary drying. Primary drying was achieved under a system pressure of 150 μm Hg by linearly increasing the shelf temperature to 20° C. at a rate of 0.2° C./min, followed by a 40 hour hold at 20° C. Secondary drying was performed by linearly increasing shelf temperature to 30° C. at 0.2° C./min, followed by an 8 hour hold at 30° C. Thermocouples were placed in various sample vials to monitor temperature during freeze-drying. Following secondary drying, sample vials were stoppered while still under vacuum to prevent samples from hydrating prior to analysis. Low volume (300 microliter), formulation screen samples were lyophilized in 96-well glass plates (Zinsser, Germany) using the same lyophilization method.
The percent trehalose crystallization was determined using near infrared diffuse reflectance spectroscopy. Data collection, calibration, and analysis methods used in this study were adapted from previous work focused on characterizing the spectral differences between amorphous trehalose and crystalline trehalose polymorphs (Connolly, B., et al. (2010) Anal. Biochem. 399(1):48-57). Using these methods, sample NIR spectra were recorded from 10,000-4,000 cm^−1 using 32 averaged scans with 4 cm^−1 resolution on a Nicolet Antaris FT-Near IR Analyzer equipped with an integrating sphere module (Thermo Fisher Scientific, Waltham, Mass.). Percent trehalose crystallization was calculated using normalized peak intensity ratios of bands at 4306 cm^−1 and 4291 cm^−1 (Connolly, B., et al. (2010) Anal. Biochem. 399(1):48-57). Data analysis was conducted using a linear regression analysis with MATLAB (R2007a, The MathWorks, Natick, Massachussetts) (Connolly, B., et al. (2010) Anal. Biochem. 399(1):48-57). […]

[2] = Formulation composition study: FT-NIR percent trehalose crystallization; conditions: trehalose 34.2% (wt/v), fast frozen, 12 months at −20° C.
Description: as §2
The formulation screen sample microplates were stored at two temperatures (−20±2° C., and −40±2° C.). The freezer temperature was monitored using a Yokogawa temperature monitoring system (Yokogawa Meters and Instruments Corporation, Tokyo, Japan).
Sample microplates for SEC analysis were stored isothermally for up to 365 days. Following frozen storage, microplates were thawed on the lab counter bench under ambient conditions (approximately 22° C.) prior to analysis. Control (0 day) samples were thawed immediately following completion of the freezing process. […]
The percent trehalose crystallization was determined using near infrared diffuse reflectance spectroscopy. […] Using these methods, sample NIR spectra were recorded from 10,000-4,000 cm^−1 using 32 averaged scans with 4 cm^−1 resolution on a Nicolet Antaris FT-Near IR Analyzer equipped with an integrating sphere module (Thermo Fisher Scientific, Waltham, Mass.). Percent trehalose crystallization was calculated using normalized peak intensity ratios of bands at 4306 cm^−1 and 4291 cm^−1 (Connolly, B., et al. (2010) Anal. Biochem. 399(1):48-57). […] Low volume (300 microliter) formulation screen samples were lyophilized and then analyzed for percent trehalose crystallization using the same method.

[3] = Visual trehalose crystallization in frozen trehalose solutions with pH indicating dye; conditions: 2.0, 4.0 and 8.0% (wt/v) trehalose, 20 mM histidine-acetate pH 5.5; normal freeze rate, −20° C. for 6 days
Description: Additional solutions were prepared with 0.0, 2.0, 4.0, and 8.0% (wt/v) trehalose in 20 mM histidine-acetate, at pH 5.5, and Water for Injection. Fifty microliters of pHydrion (pH Range: 0-7) pH-indicator dye (Micro Essential Laboratory, NY) was dispensed into a 10 cc glass vial and allowed to evaporate. Approximately four milliliters of the various trehalose formulations were added to the vial and the dye was allowed to dissolve in the solution. Photographs of frozen trehalose solutions were obtained using an Olympus Stylus 770SW digital camera (Olympus America Inc., NJ) in supermacro mode.
as §1
It is of significant interest to understand if trehalose crystallization impacts protein stability at pharmaceutically relevant (≤10% wt/v) concentrations. To evaluate the impact of nominal trehalose concentration on excipient crystallization, solutions were prepared with 0.0, 2.0, 4.0 and 8.0% (wt/v) trehalose dihydrate in the presence of pH indicating dye to better visualize crystallization. The samples were frozen using the normal freeze rate and stored at −20° C. for 6 days.

[4] = Turbidity analysis and visual inspection for precipitates; conditions: fast freeze samples
Description: The turbidity of the samples was measured by recording the average absorbance from 340-360 nm in a quartz cuvette with 1-cm path length (Eckhardt, B. M., et al. (1991) Pharm. Res. 8:1360-4) on an HP8453 spectrophotometer using Chemstation software (Agilent Technologies, Santa Clara, Calif.). Sterile water for injection was used to blank the instrument prior to analyses. Turbidity analysis of formulation screen samples was performed on a UV transparent, Corning half area, 96-well microplate using Spectramax M2 instrument (Molecular Devices, Sunnyvale). The turbidity was measured against a Sterile Water for Injection blank and the turbidity value measured by recording the average of the absorbance from 340-360 nm.

[5] = Fast freeze, 12 months frozen storage at −8° C.
[6] = Fast freeze, 12 months frozen storage at −14° C.
[7] = Fast freeze, 12 months frozen storage at −20° C.
[8] = Normal freeze, 12 months frozen storage at −8° C.
[9] = Normal freeze, 12 months frozen storage at −14° C.
[10] = Normal freeze, 12 months frozen storage at −20° C.
[11] = Slow freeze, 12 months frozen storage at −8° C.
[12] = Slow freeze, 12 months frozen storage at −14° C.
[13] = Slow freeze, 12 months frozen storage at −20° C.

Q: What does the source list for `OC[C@H]1O[C@H](O[C@H]2O[C@H](CO)[C@@H](O)[C@H](O)[C@H]2O)[C@H](O)[C@@H](O)[C@@H]1O` [trehalose]?
A: time at which trehalose crystallization reaches a plateau ([1]; frozen storage, data not shown): ≤ 2 weeks; percent crystallized trehalose ([2]; [bevacizumab]=0 mg/mL): 86%; visual trehalose crystallization after induced nucleation [3]: visually observed

Q: For “Bevacizumab: recombinant humanized anti-VEGF IgG1 monoclonal antibody; 25 mg/mL in 5.4% trehalose, 51 mM sodium phosphate pH 6.2, 0.04% polysorbate 20”, which “precipitates by turbidity analysis and visual inspection” value [4] is on record?
A: formation of precipitates

Q: What about the “trehalose crystallization by FT-NIR, fast freeze samples” value ([1]; 12 month samples, fast freeze) of the same molecule?
A: measurable amounts of trehalose crystallization

Q: What about the “trehalose crystallization by FT-NIR, slow and normal freeze samples” value ([1]; 12 month samples, slow and normal freeze) of the same molecule?
A: no measurable amounts of trehalose crystallization

Q: And the “Amorphous Trehalose” value [1, 5]?
A: 3.8 % wt/v

Q: What about the “Crystallized Trehalose” value [1, 5] of the same molecule?
A: 1.6 % wt/v

Q: And the “Amorphous Trehalose” value [1, 6]?
A: 2.9 % wt/v

Q: And the “Crystallized Trehalose” value [1, 6]?
A: 2.5 % wt/v

Q: What about the “Amorphous Trehalose” value [1, 7] of the same molecule?
A: 3.0 % wt/v

Q: And the “Crystallized Trehalose” value [1, 7]?
A: 2.5 % wt/v

Q: What about the “Amorphous Trehalose” value [1, 8] of the same molecule?
A: 5.2 % wt/v

Q: And the “Crystallized Trehalose” value [1, 8]?
A: 0.3 % wt/v

Q: What about the “Amorphous Trehalose” value [1, 9] of the same molecule?
A: 5.1 % wt/v

Q: And the “Crystallized Trehalose” value [1, 9]?
A: 0.3 % wt/v

Q: And the “Amorphous Trehalose” value [1, 10]?
A: 5.1 % wt/v

Q: And the “Crystallized Trehalose” value [1, 10]?
A: 0.3 % wt/v

Q: What about the “Amorphous Trehalose” value [1, 11] of the same molecule?
A: 5.2 % wt/v

Q: What about the “Crystallized Trehalose” value [1, 11] of the same molecule?
A: 0.2 % wt/v

Q: And the “Amorphous Trehalose” value [1, 12]?
A: 5.2 % wt/v

Q: What about the “Crystallized Trehalose” value [1, 12] of the same molecule?
A: 0.3 % wt/v

Q: And the “Amorphous Trehalose” value [1, 13]?
A: 5.1 % wt/v

Q: What about the “Crystallized Trehalose” value [1, 13] of the same molecule?
A: 0.3 % wt/v

Q: What about the percent crystallized trehalose ([2]; [bevacizumab]=25 mg/mL) of the same molecule?
A: 61%

Q: And the percent crystallized trehalose ([2]; [bevacizumab]=100 mg/mL)?
A: 47%
